Source: patent US20160108115

What was measured:
Assay in all cases: SPR, pH 7.4
Conditions in all cases: remark: other sources report otherwise
FcγRI (human) = FcγRI (human) (UniProt P12314)
FcγRIIIb (human) = FcγRIIIb (human) (UniProt O75015)
FcγRIIIa (human) = FcγRIIIa (human) (UniProt P08637)
Chain of FcγRIIIa (human) (P08637 17-208): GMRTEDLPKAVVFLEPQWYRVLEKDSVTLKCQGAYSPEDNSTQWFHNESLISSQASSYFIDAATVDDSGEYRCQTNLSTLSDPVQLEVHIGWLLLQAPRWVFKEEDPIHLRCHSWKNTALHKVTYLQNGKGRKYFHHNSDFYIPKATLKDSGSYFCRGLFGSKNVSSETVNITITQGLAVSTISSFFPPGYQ

Chain of FcγRIIIb (human) (O75015 17-200): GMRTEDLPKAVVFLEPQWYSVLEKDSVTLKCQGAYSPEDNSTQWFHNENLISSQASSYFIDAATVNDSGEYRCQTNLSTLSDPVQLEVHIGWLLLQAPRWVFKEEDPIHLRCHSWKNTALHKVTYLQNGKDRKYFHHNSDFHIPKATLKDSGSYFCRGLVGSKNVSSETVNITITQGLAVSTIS
Chain of FcγRI (human) (P12314 16-288): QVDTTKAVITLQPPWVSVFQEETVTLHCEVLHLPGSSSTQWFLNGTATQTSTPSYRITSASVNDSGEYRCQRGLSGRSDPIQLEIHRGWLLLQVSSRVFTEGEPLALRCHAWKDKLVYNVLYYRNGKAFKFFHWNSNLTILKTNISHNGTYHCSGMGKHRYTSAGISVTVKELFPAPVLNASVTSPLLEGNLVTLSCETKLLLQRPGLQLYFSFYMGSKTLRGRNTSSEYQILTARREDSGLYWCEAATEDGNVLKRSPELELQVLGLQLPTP

Kd (FcγRI (human)): 3.78 µM
Kd (FcγRIIIb (human)): 3.49 µM
Kd (FcγRIIIa (human)): 6.78 µM
Substance: eculizumab (full length)
